From publication doi:10.1101/208041 come the findings set out here.

The chains are these.
T1: dMpAgo (catalytically inactive MpAgo) D446A (Marinitoga piezophila) (UniProt H2J4R4)
T1 sequence: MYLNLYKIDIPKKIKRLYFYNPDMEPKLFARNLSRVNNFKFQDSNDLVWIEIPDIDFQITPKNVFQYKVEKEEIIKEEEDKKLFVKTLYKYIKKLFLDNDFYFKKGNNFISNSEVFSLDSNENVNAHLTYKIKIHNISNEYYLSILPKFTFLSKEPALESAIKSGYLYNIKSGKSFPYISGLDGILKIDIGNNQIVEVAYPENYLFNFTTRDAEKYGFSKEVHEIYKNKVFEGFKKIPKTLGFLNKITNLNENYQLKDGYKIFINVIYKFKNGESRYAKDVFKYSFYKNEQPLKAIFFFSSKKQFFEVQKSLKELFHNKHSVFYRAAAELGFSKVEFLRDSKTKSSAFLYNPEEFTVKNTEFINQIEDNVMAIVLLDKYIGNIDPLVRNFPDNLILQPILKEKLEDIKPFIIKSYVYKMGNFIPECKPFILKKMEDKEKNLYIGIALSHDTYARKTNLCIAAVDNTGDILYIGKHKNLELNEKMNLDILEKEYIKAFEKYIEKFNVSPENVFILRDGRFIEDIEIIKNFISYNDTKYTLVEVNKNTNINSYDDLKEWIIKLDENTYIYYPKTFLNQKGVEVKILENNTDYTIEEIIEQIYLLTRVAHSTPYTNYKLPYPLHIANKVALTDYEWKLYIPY

T2: dMpAgo (catalytically inactive MpAgo) (Marinitoga piezophila, UniProt H2J4R4 1-639, D446A)
T2 sequence: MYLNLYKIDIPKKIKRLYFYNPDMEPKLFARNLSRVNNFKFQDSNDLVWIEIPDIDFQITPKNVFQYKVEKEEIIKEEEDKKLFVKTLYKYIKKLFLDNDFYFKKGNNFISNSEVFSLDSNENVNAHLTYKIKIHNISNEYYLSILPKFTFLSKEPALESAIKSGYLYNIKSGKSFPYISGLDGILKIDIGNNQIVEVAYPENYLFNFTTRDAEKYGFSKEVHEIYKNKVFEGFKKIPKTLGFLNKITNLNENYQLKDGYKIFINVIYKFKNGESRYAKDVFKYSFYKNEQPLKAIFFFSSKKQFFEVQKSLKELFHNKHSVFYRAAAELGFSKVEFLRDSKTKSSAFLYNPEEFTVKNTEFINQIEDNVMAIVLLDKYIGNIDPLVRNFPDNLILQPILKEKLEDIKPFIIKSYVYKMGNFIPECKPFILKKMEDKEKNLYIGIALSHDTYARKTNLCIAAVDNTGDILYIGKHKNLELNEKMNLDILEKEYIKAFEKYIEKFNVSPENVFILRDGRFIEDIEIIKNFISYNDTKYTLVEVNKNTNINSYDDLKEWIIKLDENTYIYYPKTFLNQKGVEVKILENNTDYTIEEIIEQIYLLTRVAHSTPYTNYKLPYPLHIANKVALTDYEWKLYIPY

T3: MpAgo WT (Marinitoga piezophila, UniProt H2J4R4 1-639)
T3 sequence: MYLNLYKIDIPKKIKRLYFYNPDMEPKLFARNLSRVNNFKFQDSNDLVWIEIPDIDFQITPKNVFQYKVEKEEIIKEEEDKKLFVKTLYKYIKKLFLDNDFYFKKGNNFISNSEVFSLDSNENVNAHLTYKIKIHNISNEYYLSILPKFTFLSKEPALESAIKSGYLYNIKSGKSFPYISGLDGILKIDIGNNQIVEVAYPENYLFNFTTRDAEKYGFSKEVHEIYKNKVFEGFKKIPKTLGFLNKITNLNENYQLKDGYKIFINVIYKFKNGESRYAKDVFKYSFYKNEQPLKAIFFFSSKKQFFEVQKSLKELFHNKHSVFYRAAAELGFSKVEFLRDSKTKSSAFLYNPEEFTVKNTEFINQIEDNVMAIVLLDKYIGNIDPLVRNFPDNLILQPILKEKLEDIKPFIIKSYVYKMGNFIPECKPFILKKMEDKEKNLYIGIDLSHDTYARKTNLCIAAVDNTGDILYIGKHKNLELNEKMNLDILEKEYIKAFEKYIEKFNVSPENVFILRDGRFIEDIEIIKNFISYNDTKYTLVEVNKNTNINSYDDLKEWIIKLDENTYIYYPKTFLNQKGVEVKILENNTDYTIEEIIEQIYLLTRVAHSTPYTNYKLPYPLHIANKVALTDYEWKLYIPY

B1: U7 guide / A target (mixed)
RNA 1: UAGCGGUUGCCAUAUCCAACU
RNA 2: GGCAGCAUUCAACCAUAUGGCAACCGCAUACAGCCAAG
modifications: BrdU at guide 1
B2: G7 guide / C target (mixed)
RNA 1: UAGCGGGUGCCAUAUCCAACU
RNA 2: GGCAGCAUUCAACCAUAUGGCACCCGCAUACAGCCAAG
modifications: BrdU at guide 1
B3: U6 guide / A target (mixed)
RNA 1: UGCGGUUGCCAUAUGCAACUU
RNA 2: GGCAGCAUUCAACCAUAUGGCAACCGCAUACAGCCAAG
modifications: BrdU at guide 1
B4: C7 guide / G target (mixed)
RNA 1: UAGCGGCUGCCAUAUCCAACU
RNA 2: GGCAGCAUUCAACCAUAUGGCAGCCGCAUACAGCCAAG
modifications: BrdU at guide 1
B5: A7 guide / U target (mixed)
RNA 1: UAGCGGAUGCCAUAUCCAACU
RNA 2: GGCAGCAUUCAACCAUAUGGCAUCCGCAUACAGCCAAG
modifications: BrdU at guide 1
B6: A7 guide / mm3 (mixed)
RNA 1: UAGCGGAUGCCAUAUCCAACU
RNA 2: GGCAGCAUUCAACCAUAUGGCAUCCGAAUACAGCCAAG
modifications: BrdU at guide 1
B7: A7 guide / G target (mm7) (mixed)
RNA 1: UAGCGGAUGCCAUAUCCAACU
RNA 2: GGCAGCAUUCAACCAUAUGGCAGCCGCAUACAGCCAAG
modifications: BrdU at guide 1
B8: A6 guide / mm4 (mixed)
RNA 1: UGCGGAUGCCAUAUGCAACUU
RNA 2: GGCAGCAUUCAACCAUAUGGCAUCAGCAUACAGCCAAG
modifications: BrdU at guide 1
B9: A6 guide / mm3 (mixed)
RNA 1: UGCGGAUGCCAUAUGCAACUU
RNA 2: GGCAGCAUUCAACCAUAUGGCAUCCUCAUACAGCCAAG
modifications: BrdU at guide 1
B10: A6 guide / mm12 (mixed)
RNA 1: UGCGGAUGCCAUAUGCAACUU
RNA 2: GGCAGCAUUCAACCAUCUGGCAUCCGCAUACAGCCAAG
modifications: BrdU at guide 1
B11: A6 guide / mm2 (mixed)
RNA 1: UGCGGAUGCCAUAUGCAACUU
RNA 2: GGCAGCAUUCAACCAUAUGGCAUCCGAAUACAGCCAAG
modifications: BrdU at guide 1
B12: A6 guide / mm11 (mixed)
RNA 1: UGCGGAUGCCAUAUGCAACUU
RNA 2: GGCAGCAUUCAACCAUAGGGCAUCCGCAUACAGCCAAG
modifications: BrdU at guide 1
B13: A6 guide / mm8 (mixed)
RNA 1: UGCGGAUGCCAUAUGCAACUU
RNA 2: GGCAGCAUUCAACCAUAUGGAAUCCGCAUACAGCCAAG
modifications: BrdU at guide 1
B14: A6 guide / mm7 (mixed)
RNA 1: UGCGGAUGCCAUAUGCAACUU
RNA 2: GGCAGCAUUCAACCAUAUGGCCUCCGCAUACAGCCAAG
modifications: BrdU at guide 1
B15: A6 guide / mm5 (mixed)
RNA 1: UGCGGAUGCCAUAUGCAACUU
RNA 2: GGCAGCAUUCAACCAUAUGGCAUACGCAUACAGCCAAG
modifications: BrdU at guide 1
B16: A6 guide / mm10 (mixed)
RNA 1: UGCGGAUGCCAUAUGCAACUU
RNA 2: GGCAGCAUUCAACCAUAUUGCAUCCGCAUACAGCCAAG
modifications: BrdU at guide 1
B17: gRNA 5'-rC (ssRNA)
RNA: CAUACAACCUACUACCUCAUU
modifications: 5'-OH
B18: gRNA 5'-rU (ssRNA)
RNA: UAUACAACCUACUACCUCAUU
modifications: 5'-OH
B19: gRNA 5'-rA (ssRNA)
RNA: AAUACAACCUACUACCUCAUU
modifications: 5'-OH
B20: rA guide / OFF target (mixed)
RNA 1: AAUACAACCUACUACCUCAUU
RNA 2: GUUAUGUGUGUGAUUAUAUUUGUUCCAGUUCCUGUGUAAUAGACAUGGAA
B21: dU guide / OFF target (mixed)
RNA 1: UAUACAACCUACUACCUCAUU
RNA 2: GUUAUGUGUGUGAUUAUAUUUGUUCCAGUUCCUGUGUAAUAGACAUGGAA
modifications: dU at guide 1
B22: rU guide / OFF target (mixed)
RNA 1: UAUACAACCUACUACCUCAUU
RNA 2: GUUAUGUGUGUGAUUAUAUUUGUUCCAGUUCCUGUGUAAUAGACAUGGAA
B23: rC guide / OFF target (mixed)
RNA 1: CAUACAACCUACUACCUCAUU
RNA 2: GUUAUGUGUGUGAUUAUAUUUGUUCCAGUUCCUGUGUAAUAGACAUGGAA
B24: rA guide / ON target (mixed)
RNA 1: AAUACAACCUACUACCUCAUU
RNA 2: GGACUAUGAUCUAGAUAUUAAUGAGGUAGUAGGUUGUAUCUCAGGAGGUC
B25: rC guide / ON target (mixed)
RNA 1: CAUACAACCUACUACCUCAUU
RNA 2: GGACUAUGAUCUAGAUAUUAAUGAGGUAGUAGGUUGUAUCUCAGGAGGUC
B26: rU guide / ON target (mixed)
RNA 1: UAUACAACCUACUACCUCAUU
RNA 2: GGACUAUGAUCUAGAUAUUAAUGAGGUAGUAGGUUGUAUCUCAGGAGGUC
B27: dU guide / ON target (mixed)
RNA 1: UAUACAACCUACUACCUCAUU
RNA 2: GGACUAUGAUCUAGAUAUUAAUGAGGUAGUAGGUUGUAUCUCAGGAGGUC
modifications: dU at guide 1
B28: BrdU guide / 18-nt target (mixed)
RNA 1: UAUACAACCUACUACCUCAUU
RNA 2: GGACUAUGUAGAUCUAUAAUUAGAGGUAGUAGGUUGUAUCUCAGGAGGUC
modifications: BrdU at guide 1
B29: BrdU guide / 15-nt target (mixed)
RNA 1: UAUACAACCUACUACCUCAUU
RNA 2: GGACUAUGUAGAUCUAUAAUUACUCGUAGUAGGUUGUAUCUCAGGAGGUC
modifications: BrdU at guide 1

In one data set the target is T1, dMpAgo (catalytically inactive MpAgo) D446A (Marinitoga piezophila). Description: filter binding. As to conditions: BrdU at guide 1; N = inosine at target 23.
On to “UGCGGAUGCCAUAUGCAACUU / GGCAGCAUUCAACCAUAUGGCANCCGCAUACAGCCAAG [A6 guide / I target]”, for which the binding signal came to 19 % bound.

Staying with this data set, now noted: BrdU at guide 1; internal desthiobiotin-TEG before last AA.
For the molecule “UAUUGUGACAAGAAUGCUGUUAAAAAAAAAAA / GGCAGCAUUCAACAUUGUUGUCACAAUAUACAGCCAAG [32-nt guide / mm12]”, the binding signal (fold Kd vs complementary) is greater than 5.
On the same count and under the same terms, next, “UAUUGUGACAAGAAUGCUGUUAAAAAAAAAAA / GGCAGCAUUCAACAUUCUAGUCACAAUAUACAGCCAAG [32-nt guide / mm10]”: greater than 5.

A further data set addresses T2, dMpAgo (catalytically inactive MpAgo). Description: filter binding.
Conditions: not given
Regarding B1, the binding result is “binds”.
As for B2, the binding result is on record as “binds”.
Same read-out and setting: next, B3: “binds”; B4: “binds”; B5: “binds”.

A further data set has the same target. In words: filter binding.
Conditions: not given
This is another data set of the same source.
For B6, the binding signal was found to be 32 fold Kd vs complementary.
Still for that read-out and setting: next, B7: 301 fold Kd vs complementary.

For another data set the target is unchanged. In words: filter binding.
Conditions: not given
The source holds these as a separate data set.
As for B8, the binding signal was greater than 5 fold Kd vs complementary.
On the same count and under the same terms, as for B9, the figure is greater than 5 fold Kd vs complementary; as for B10, greater than 5 fold Kd vs complementary.
Still for that read-out and setting: as for B11, the figure is greater than 5 fold Kd vs complementary; as for B12, greater than 5 fold Kd vs complementary.
Take B13: the binding signal is greater than 5 fold Kd vs complementary.
Still for that read-out and setting: as for B14, the figure is greater than 5 fold Kd vs complementary; as for B15, greater than 5 fold Kd vs complementary; as for B16, greater than 5 fold Kd vs complementary.

In the next data set the target is T3, MpAgo WT. In words: filter binding.
Conditions: not given
In the case of B17, binding was put at a Kd of 104 ± 9 nM.
Molecule B18 came in with a Kd of 81 ± 9 nM.
The same measure, in the same setting: as for B19, the figure is 73 ± 10 nM.

The target in another data set is T2, dMpAgo (catalytically inactive MpAgo). In words: filter binding.
Conditions: not given
The source holds these as a separate data set.
With B20, the dissociation constant (Kd) was 112 ± 19 nM.
On to B21, for which the binding result is listed as “no binding”.
Molecule B22 returned a Kd of 359 ± 37 nM.
The same measure, in the same setting: as for B23, the figure is 112 ± 18 nM.
On the same count and under the same terms, as for B24, the figure is 12 ± 2 nM; as for B25, 4.6 ± 0.5 nM; as for B26, 5 ± 0.8 nM.
On the same count and under the same terms, as for B27, the figure is 0.5 ± 0.067 nM.

For the next data set the target is unchanged. In words: filter binding.
Conditions: not given
This is another data set of the same source.
For B28, the Kd was 0.107 ± 0.006 nM.
Same read-out and setting: next, B29: 0.083 ± 0.008 nM.

In general, Kd refers to the concentration at which binding is half-saturated. A low value points to a tighter complex.
